# According to publication PMC4341510, “Jasmonate-responsive expression of paclitaxel biosynthesis genes in Taxus cuspidata cultured cells is negatively regulated by the bHLH transcription factors TcJAMYC1, TcJAMYC2, and TcJAMYC4”:
# B1: Mutated (no E-box) (dsDNA)
# DNA 1: TAGCGCATCGATAAGCCTATCGATCG
# DNA 2: CGTACGATCGATAGGCTTATCGATGC
# B2: CACGTG E-box (dsDNA)
# DNA 1: TAGCATCGATCGCACGTGATCGATCG
# DNA 2: CGTACGATCGATCACGTGCGATCGAT
# B3: CATGTG E-box (dsDNA)
# DNA 1: TAGCGCATCGATCATGTGATCGATCG
# DNA 2: CGTACGATCGATCACATGATCGATGC
# Legend:
# TcJAMYC1 [1] = target: T1, TcJAMYC1 (Taxus cuspidata (cell culture line P991), UniProt B9VVN9 1-660); assay: EMSA; 25-75 ng protein; 20 mM HEPES-KOH pH 7.9, 20% glycerol, 0.2 mM EDTA, 100 mM KCl, 0.5 mM PMSF, 1 mM DTT, 15 mM MgCl2, 5 ug BSA; 175 fmol probe in 20 ul; gel 7% PAGE, 0.5X TBE, 4 C; binding temperature not stated; settings: protein: recombinant; tags: N-terminal 6xHis (pDEST17); chain copies: 2; label: 32P by Klenow fill-in when probe; 5' overhang 4 nt at both ends; labeled probe filled in
# T1 sequence (B9VVN9 entry or part of it): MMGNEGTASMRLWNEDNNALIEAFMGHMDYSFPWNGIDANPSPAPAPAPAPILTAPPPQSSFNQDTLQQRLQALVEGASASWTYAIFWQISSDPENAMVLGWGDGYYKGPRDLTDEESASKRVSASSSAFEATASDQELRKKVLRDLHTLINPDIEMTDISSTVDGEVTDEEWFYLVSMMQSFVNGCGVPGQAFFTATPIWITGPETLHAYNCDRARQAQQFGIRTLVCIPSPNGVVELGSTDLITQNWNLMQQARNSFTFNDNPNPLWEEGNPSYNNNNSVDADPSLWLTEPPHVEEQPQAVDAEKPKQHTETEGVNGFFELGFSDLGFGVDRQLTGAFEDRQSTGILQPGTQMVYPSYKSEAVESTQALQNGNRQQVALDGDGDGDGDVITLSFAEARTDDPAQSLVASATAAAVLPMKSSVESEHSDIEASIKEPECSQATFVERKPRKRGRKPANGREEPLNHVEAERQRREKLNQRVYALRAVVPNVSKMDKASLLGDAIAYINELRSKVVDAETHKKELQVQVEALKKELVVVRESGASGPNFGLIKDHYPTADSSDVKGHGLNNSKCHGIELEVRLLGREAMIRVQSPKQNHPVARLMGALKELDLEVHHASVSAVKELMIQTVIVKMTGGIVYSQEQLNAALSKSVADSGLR
# TcJAMYC1 [2] = target: T1, TcJAMYC1; assay: competition EMSA; vs CATGTG probe; competes better than CATGTG self; 20 mM HEPES-KOH pH 7.9, 20% glycerol, 0.2 mM EDTA, 100 mM KCl, 0.5 mM PMSF, 1 mM DTT, 15 mM MgCl2, 5 ug BSA; 175 fmol probe in 20 ul; gel 7% PAGE, 0.5X TBE, 4 C; binding temperature not stated; settings: protein: recombinant; tags: N-terminal 6xHis (pDEST17); chain copies: 2; label: 32P by Klenow fill-in when probe; 5' overhang 4 nt at both ends; labeled probe filled in
# GUS (beta-glucuronidase) = GUS (beta-glucuronidase) (UniProt P05804 1-603); assay: EMSA; 25-75 ng protein; 20 mM HEPES-KOH pH 7.9, 20% glycerol, 0.2 mM EDTA, 100 mM KCl, 0.5 mM PMSF, 1 mM DTT, 15 mM MgCl2, 5 ug BSA; 175 fmol probe in 20 ul; gel 7% PAGE, 0.5X TBE, 4 C; binding temperature not stated; settings: protein: recombinant; label: 32P by Klenow fill-in when probe; 5' overhang 4 nt at both ends; labeled probe filled in
# Chain of GUS (beta-glucuronidase) (P05804 whole entry): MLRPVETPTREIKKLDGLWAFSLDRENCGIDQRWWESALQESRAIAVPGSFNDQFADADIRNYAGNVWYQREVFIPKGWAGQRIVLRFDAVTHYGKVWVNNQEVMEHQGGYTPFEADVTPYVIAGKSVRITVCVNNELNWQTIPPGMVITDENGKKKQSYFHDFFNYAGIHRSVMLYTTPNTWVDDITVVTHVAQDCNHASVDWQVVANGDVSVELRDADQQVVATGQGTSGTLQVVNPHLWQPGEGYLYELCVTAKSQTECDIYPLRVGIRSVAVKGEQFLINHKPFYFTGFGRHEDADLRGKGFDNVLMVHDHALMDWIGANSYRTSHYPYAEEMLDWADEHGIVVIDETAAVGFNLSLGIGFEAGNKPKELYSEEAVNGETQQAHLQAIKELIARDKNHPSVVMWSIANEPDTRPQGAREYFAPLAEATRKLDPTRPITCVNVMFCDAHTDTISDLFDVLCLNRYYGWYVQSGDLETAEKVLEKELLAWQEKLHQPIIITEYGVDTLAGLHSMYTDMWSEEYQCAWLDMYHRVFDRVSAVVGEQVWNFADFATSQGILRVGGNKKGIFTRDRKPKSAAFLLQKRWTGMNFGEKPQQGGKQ
# TcJAMYC1 [3] = target: T1, TcJAMYC1; assay: EMSA; 25-100 ng protein; 20 mM HEPES-KOH pH 7.9, 20% glycerol, 0.2 mM EDTA, 100 mM KCl, 0.5 mM PMSF, 1 mM DTT, 15 mM MgCl2, 5 ug BSA; 175 fmol probe in 20 ul; gel 7% PAGE, 0.5X TBE, 4 C; binding temperature not stated; settings: protein: recombinant; tags: N-terminal 6xHis (pDEST17); chain copies: 2; label: 32P by Klenow fill-in when probe; 5' overhang 4 nt at both ends; labeled probe filled in
binder,measurement,setting,value
B1,binding result,TcJAMYC1 [1],no binding
B2,binding result,TcJAMYC1 [2],binds
B3,binding result,GUS (beta-glucuronidase),no binding
same,binding result,TcJAMYC1 [3],binds
